This passage reports Kd results from article PMC6823300, “The molecular basis of monopolin recruitment to the kinetochore” (Chromosoma, 2019).

Where no end group is shown, it is not given here. The star is where a group is joined. FITC = O=C1OC2(c3ccc(O)cc3Oc3cc(O)ccc32)c2ccc(NC(=S)*)cc21

Assay [1] concerns the target T1, S. cerevisiae Csm1 globular domain (residues 69–190 of 190), untagged (S. cerevisiae, UniProt P25651 69-190).
T1 construct: S. cerevisiae Csm1, globular domain, residues 69-190 of 190; also called Sc Csm1^69–190; untagged Csm1
T1 sequence (looked up): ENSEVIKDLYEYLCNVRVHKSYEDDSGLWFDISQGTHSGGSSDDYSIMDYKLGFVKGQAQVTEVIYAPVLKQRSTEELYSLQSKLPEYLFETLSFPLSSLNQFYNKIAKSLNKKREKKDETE
The experiment in a line: ITC; Microcal ITC 200; His6-MBP-fused Dsn1 fragments at 1–1.5 mM injected into a sample cell containing untagged Csm1 at 100–200 μM; protein buffer (20 mM Tris-HCl pH 7.5, 5% glycerol) plus 300 mM NaCl and 1 mM dithiothreitol. As to conditions: both partners purified. (In general: In ITC the heat of successive injections is recorded.)

Assay [2] concerns the target T2, S. pombe Csm1 C-terminal globular domain (residues 125–261), wild type (S. pombe, UniProt O13684 125-261).
T2 construct: S. pombe Csm1 (also called Pcs1), C-terminal globular domain, residues 125-261; also called S. pombe Csm1^125–261; Sp Csm1; source: E. coli Rosetta2 (DE3) pLysS, purified
T2 sequence (looked up): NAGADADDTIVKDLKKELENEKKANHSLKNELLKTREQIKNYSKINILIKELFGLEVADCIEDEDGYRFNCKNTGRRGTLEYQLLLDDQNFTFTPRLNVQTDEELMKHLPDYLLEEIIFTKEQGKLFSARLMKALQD
The experiment in a line: fluorescence polarisation; Csm1 125–261 at 20 nM-250 μM with 20 nM FITC-labelled Mis13 5–17 peptide; 20 mM Tris 7.5, 300 mM NaCl, 10% glycerol, 0.01% NP-40, 1 mM DTT; triplicate; single-site binding model. As to conditions: both partners purified.

B1: His6-MBP-fused S. cerevisiae Dsn1 Box 1-2-3 region (residues 71–110 of 576) (domain or fragment, UniProt P40568 71-110, looked up)
chain: DLKFKRHKNKHIQGFPTLGERLDNLQDIKKAKRVENFNSS
notes: S. cerevisiae Dsn1, Box 1-2-3 region, residues 71-110 of 576; also called Sc Dsn1^71–110; His6-MBP-fused Dsn1 fragment; source: E. coli Rosetta2 (DE3) pLysS, purified
As for B1, the Kd in assay [1] came out at 12 µM.

B2: Sp Mis13 5–17 peptide (Dsn1-N/Box 1), fluorescein isothiocyanate-labelled (peptide)
peptide: {FITC}-PEEQEGFVFVRKG
notes: S. pombe Mis13 (Dsn1), Dsn1-N/Box 1 region, residues 5-17; also called Sp Dsn1-N/Box 1 (residues 5–17); S. pombe Mis13 Dsn1-N region
On to B2, for which the Kd in assay [2] stood at 22 µM.

A word on the Kd: it is the concentration at which binding is half-saturated.
